In paper PMC4550891:

Target: Glu286 (UniProt position 286, FFGHPEVYIIV)
Experiment: kinetics

Substance	pKa (~22 °C, not stated (100 mM buffer), 100 mM buffer after 1:5 mixing: MES (pH 6, 6.5), HEPES (pH 7-8), BIS-TRIS propane (pH 7-9), CHES (pH 9, 9.5), CAPS (pH 10-11). Also 0.1 mM EDTA., Fully (four-electron) reduced CytcO reacting with 1 mM O2, P3 intermediate, detergent-solubilised, no membrane potential)	pKa (Reduced wild-type CytcO reacting with O2, P3->F3 transition, cited from earlier work)
Cytochrome c oxidase (aa3-type) Ser425Ala variant (subunit I) (Rhodobacter sphaeroides; S425A)	>10.5	–
Cytochrome c oxidase (aa3-type), subunit I carries the titrating residue (Rhodobacter sphaeroides)	–	9.4
